# Laboratory results reported in the supplement of paper PMC11780869.
# Tested on: Bacillus subtilis
# Test: cleaved RNA product abundance (RNA/gDNA barcode ratio) relative to median wild-type variant (ratio to wild type); higher = more accumulation of the downstream cleavage product
# Details: experiment (reporter, strain, medium): exp 8a: truncated aprE reporter, strain BJT201 with 2% xylose (RNase J1 expressed); cleavage site: glnRA (positions -5 to +31 mutated)
# Method in brief: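 Reporter mRNAs (truncated aprE or tetM) carrying barcoded, mutagenized RNase Y cleavage-site windows were made from oligos with a 9% error rate and integrated into the B. subtilis chromosome. Cultures grew in LB at 37°C from OD600 0.0003 to 0.3. Cleaved RNA was gel-selected, reverse transcribed and barcode-sequenced alongside genomic DNA barcodes, with UMI collapsing. Cleaved product abundance is the RNA:gDNA barcode ratio per variant, scaled to the median wild-type variant.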
row,Sequence,cleaved RNA product abundance
1,CGACATGTCCCGCTTCTTTCATTAATCCGTTAGCAACTGTTTTGCCATATACATATACCTTTTAAGAGGAGGAAT,0.198
2,CGACATGTCCCGCTTCTTTCATTAATCCGTTAGCAACTGTTTTGCCATATACATTTAACTTTTAAGAGGAGGAAT,0.406
3,CGACATGTCCCGCTTCTTTCATTAATCCGTTAGCAACTGTTTTGCCATATACATTTACATTTTAAGAGGAGGAAT,0.355
4,CGACATGTCCCGCTTCTTTCATTAATCCGTTAGCAACTGTTTTGCCATATACATTTACCGTTTAAGAGGAGGAAT,0.539
5,CGACATGTCCCGCTTCTTTCATTAATCCGTTAGCAACTGTTTTGCCATATACATTTACCTTTTAAGAGGAGGAAT,0.205
6,CGACATGTCCCGCTTCTTTCATTAATCCGTTAGCAACTGTTTTGCCATATACATTTACGTTTTAAGAGGAGGAAT,0.6
7,CGACATGTCCCGCTTCTTTCATTAATCCGTTAGCAACTGTTTTGCCATATACGTTTACCTTTTAAGAGGAGGAAT,0.0858
8,CGACATGTCCCGCTTCTTTCATTAATCCGTTAGCAACTGTTTTGCGATATACATTAACCTTTTAAGAGGAGGAAT,0.781
9,CGACATGTCCCGCTTCTTTCATTAATCCGTTAGCAACTGTTTTGCGATATACATTTACCATTTAAGAGGAGGAAT,0.637
10,CGACATGTCCCGCTTCTTTCATTAATCCGTTAGCAACTGTTTTGCGATATACATTTACCTTTTAAGAGGAGGAAT,0.406
11,CGACATGTCCCGCTTCTTTCATTAATCCGTTAGCAACTGTTTTGCGATATACATTTACGTTTTAAGAGGAGGAAT,0.36
12,CGACATGTCCCGCTTCTTTCATTAATCCGTTAGCAACTGTTTTGCGATATACATTTACTTTTTAAGAGGAGGAAT,0.55
13,CGACATGTCCCGCTTCTTTCATTAATCCGTTAGCAACTGTTTTGCGATATACATTTATCTTTTAAGAGGAGGAAT,0.552
14,CGACATGTCCCGCTTCTTTCATTAATCCGTTAGCAACTGTTTTGCTAAAGACATTTACCTTTTAAGAGGAGGAAT,0.0969
15,CGACATGTCCCGCTTCTTTCATTAATCCGTTAGCAACTGTTTTGCTAAATACATTTAACTTTTAAGAGGAGGAAT,0.445
16,CGACATGTCCCGCTTCTTTCATTAATCCGTTAGCAACTGTTTTGCTAAATACATTTACCTTTTAAGAGGAGGAAT,0.524
17,CGACATGTCCCGCTTCTTTCATTAATCCGTTAGCAACTGTTTTGCTAAATACATTTATCTTTTAAGAGGAGGAAT,0.814
18,CGACATGTCCCGCTTCTTTCATTAATCCGTTAGCAACTGTTTTGCTAAATACATTTGCCTTTTAAGAGGAGGAAT,0.22
19,CGACATGTCCCGCTTCTTTCATTAATCCGTTAGCAACTGTTTTGCTAAATACATTTTCCTTTTAAGAGGAGGAAT,0.232
20,CGACATGTCCCGCTTCTTTCATTAATCCGTTAGCAACTGTTTTGCTAAATACCTTTACCTTTTAAGAGGAGGAAT,0.165
21,CGACATGTCCCGCTTCTTTCATTAATCCGTTAGCAACTGTTTTGCTAAATAGATTTACCTTTTAAGAGGAGGAAT,0.884

row,Sequence,cleaved RNA product abundance
1,CGACATGTCCCGCTTCTTTCATTAATCCGTTAGCAACTGTTTTGCTAAATTCATTTACCTTTTAAGAGGAGGAAT,0.133
2,CGACATGTCCCGCTTCTTTCATTAATCCGTTAGCAACTGTTTTGCTACATACAATTACCTTTTAAGAGGAGGAAT,0.348
3,CGACATGTCCCGCTTCTTTCATTAATCCGTTAGCAACTGTTTTGCTACATACACTTACCTTTTAAGAGGAGGAAT,0.213
4,CGACATGTCCCGCTTCTTTCATTAATCCGTTAGCAACTGTTTTGCTACATACATTAACCTTTTAAGAGGAGGAAT,0.434
5,CGACATGTCCCGCTTCTTTCATTAATCCGTTAGCAACTGTTTTGCTACATACATTTACCTTTTAAGAGGAGGAAT,0.368
6,CGACATGTCCCGCTTCTTTCATTAATCCGTTAGCAACTGTTTTGCTAGATACATATACCTTTTAAGAGGAGGAAT,0.781
7,CGACATGTCCCGCTTCTTTCATTAATCCGTTAGCAACTGTTTTGCTAGATACATTTACATTTTAAGAGGAGGAAT,0.424
8,CGACATGTCCCGCTTCTTTCATTAATCCGTTAGCAACTGTTTTGCTAGATACATTTACCTTTTAAGAGGAGGAAT,0.43
9,CGACATGTCCCGCTTCTTTCATTAATCCGTTAGCAACTGTTTTGCTAGATACATTTACTTTTTAAGAGGAGGAAT,0.636
10,CGACATGTCCCGCTTCTTTCATTAATCCGTTAGCAACTGTTTTGCTATAAAAATTTACCTTTTAAGAGGAGGAAT,0.405
11,CGACATGTCCCGCTTCTTTCATTAATCCGTTAGCAACTGTTTTGCTATAAACATTTAACTTTTAAGAGGAGGAAT,0.912
12,CGACATGTCCCGCTTCTTTCATTAATCCGTTAGCAACTGTTTTGCTATAAACATTTACCTTTTAAGAGGAGGAAT,0.603
13,CGACATGTCCCGCTTCTTTCATTAATCCGTTAGCAACTGTTTTGCTATAAACATTTACGTTTTAAGAGGAGGAAT,1.32
14,CGACATGTCCCGCTTCTTTCATTAATCCGTTAGCAACTGTTTTGCTATAAACATTTATCTTTTAAGAGGAGGAAT,0.717
15,CGACATGTCCCGCTTCTTTCATTAATCCGTTAGCAACTGTTTTGCTATAAACCTTTACCTTTTAAGAGGAGGAAT,0.163
16,CGACATGTCCCGCTTCTTTCATTAATCCGTTAGCAACTGTTTTGCTATAAACTTTTACCTTTTAAGAGGAGGAAT,0.318
17,CGACATGTCCCGCTTCTTTCATTAATCCGTTAGCAACTGTTTTGCTATAAATATTTACCTTTTAAGAGGAGGAAT,1.49
18,CGACATGTCCCGCTTCTTTCATTAATCCGTTAGCAACTGTTTTGCTATACACATTTACATTTTAAGAGGAGGAAT,0.372
19,CGACATGTCCCGCTTCTTTCATTAATCCGTTAGCAACTGTTTTGCTATACACATTTACCTTTTAAGAGGAGGAAT,0.459
20,CGACATGTCCCGCTTCTTTCATTAATCCGTTAGCAACTGTTTTGCTATACACATTTACTTTTTAAGAGGAGGAAT,0.146
21,CGACATGTCCCGCTTCTTTCATTAATCCGTTAGCAACTGTTTTGCTATAGACATTCACCTTTTAAGAGGAGGAAT,0.435

row,Sequence,cleaved RNA product abundance
1,CGACATGTCCCGCTTCTTTCATTAATCCGTTAGCAACTGTTTTGCTATAGACATTTAACTTTTAAGAGGAGGAAT,1.15
2,CGACATGTCCCGCTTCTTTCATTAATCCGTTAGCAACTGTTTTGCTATAGACATTTACCTTTTAAGAGGAGGAAT,0.624
3,CGACATGTCCCGCTTCTTTCATTAATCCGTTAGCAACTGTTTTGCTATATAAAATTACCTTTTAAGAGGAGGAAT,0.606
4,CGACATGTCCCGCTTCTTTCATTAATCCGTTAGCAACTGTTTTGCTATATAAATATACCTTTTAAGAGGAGGAAT,1.3
5,CGACATGTCCCGCTTCTTTCATTAATCCGTTAGCAACTGTTTTGCTATATAAATCTACCTTTTAAGAGGAGGAAT,1.49
6,CGACATGTCCCGCTTCTTTCATTAATCCGTTAGCAACTGTTTTGCTATATAAATGTACCTTTTAAGAGGAGGAAT,1.78
7,CGACATGTCCCGCTTCTTTCATTAATCCGTTAGCAACTGTTTTGCTATATAAATTAACCTTTTAAGAGGAGGAAT,1.01
8,CGACATGTCCCGCTTCTTTCATTAATCCGTTAGCAACTGTTTTGCTATATAAATTTACATTTTAAGAGGAGGAAT,1.83
9,CGACATGTCCCGCTTCTTTCATTAATCCGTTAGCAACTGTTTTGCTATATAAATTTACCTTTTAAGAGGAGGAAT,0.938
10,CGACATGTCCCGCTTCTTTCATTAATCCGTTAGCAACTGTTTTGCTATATAAATTTACGTTTTAAGAGGAGGAAT,1.02
11,CGACATGTCCCGCTTCTTTCATTAATCCGTTAGCAACTGTTTTGCTATATAAATTTATCTTTTAAGAGGAGGAAT,2.04
12,CGACATGTCCCGCTTCTTTCATTAATCCGTTAGCAACTGTTTTGCTATATACAACTACCTTTTAAGAGGAGGAAT,1.12
13,CGACATGTCCCGCTTCTTTCATTAATCCGTTAGCAACTGTTTTGCTATATACAATAACCTTTTAAGAGGAGGAAT,0.855
14,CGACATGTCCCGCTTCTTTCATTAATCCGTTAGCAACTGTTTTGCTATATACAATTAACTTTTAAGAGGAGGAAT,2.58
15,CGACATGTCCCGCTTCTTTCATTAATCCGTTAGCAACTGTTTTGCTATATACAATTACCTTTTAAGAGGAGGAAT,0.983
16,CGACATGTCCCGCTTCTTTCATTAATCCGTTAGCAACTGTTTTGCTATATACAATTATCTTTTAAGAGGAGGAAT,0.873
17,CGACATGTCCCGCTTCTTTCATTAATCCGTTAGCAACTGTTTTGCTATATACAATTGCCTTTTAAGAGGAGGAAT,0.532
18,CGACATGTCCCGCTTCTTTCATTAATCCGTTAGCAACTGTTTTGCTATATACAATTTACCTTTTAAGAGGAGGAA,1.39
19,CGACATGTCCCGCTTCTTTCATTAATCCGTTAGCAACTGTTTTGCTATATACACGTACCTTTTAAGAGGAGGAAT,0.835
